The source of these data is patent US20100322948A1, “Bone morphogenetic protein (BMP)-binding domains of proteins of the repulsive guidance molecule (RGM) protein family and functional fragments thereof, and use of same” (ABBOTT GMBH & CO. KG, priority 2007, published 2010).

The chains are these.
B3: Recombinant human BMP-4 (ligand, UniProt P12644 293-408, looked up)
chain: SPKHHSQRARKKNKNCRRHSLYVDFSDVGWNDWIVAPPGYQAFYCHGDCPFPLADHLNSTNHAIVQTLVNSVNSSIPKACCVPTELSAISMLYLDEYDKVVLKNYQEMVVEGCGCR
notes: Bought protein; also called hBMP-4
B5: 47-168-Fc (#786) (Fc fusion)
chain: PCKILKCNSEFWSATSGSHAPASDDTPEFCAALRSYALCTRRTARTCRGDLAYHSAVHGIEDLMSQHNCSKDGPTSQPRLRTLPPAGDSQERSDSPEICHYEKSFHKHSATPNYTHCGLFGD
notes: Expressed in HEK293F cells; IgK leader left out; also called fragment 0; not shown: Factor Xa site from the vector; human IgG Fc (hIgG lambda hc 257-Stop)

One experiment addresses T1, BMP-4 (Homo sapiens, UniProt P12644).
T1 construct: purchased R&D Systems 314-BM
T1 sequence (P12644 293-408): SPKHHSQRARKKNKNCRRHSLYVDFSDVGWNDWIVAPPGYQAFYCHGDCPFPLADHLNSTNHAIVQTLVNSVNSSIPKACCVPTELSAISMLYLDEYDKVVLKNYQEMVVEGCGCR
As to the kind of experiment: In vitro interaction test, variant B: immobilized RGMA-Fc fusion proteins, detection of BMP-4 binding. How it is done: (§1) Test Method 4: In Vitro Interaction Test for Determining the Interaction between RGMA and BMP-2 and -4
(§2) The interaction tests were carried out as described below:
(§3) Variant B: Immobilization of Various RGMA-Fc Fusion Proteins and Detection of the Binding of the BMP-2/ or -4 Protein
(§4) Immunoplate Cert. MaxiSorp F96 (Nunc, 439454)
(§5) RGMA-Fc fragments • Volume used: 2.5 μg/mL in Na2CO3; addition: 50 μL per well • 1 hour at 37° C. in damp chamber
(§6) 3. Washing step: • Wash 3× with PBS/0.02% Tween 20
(§7) 4. Blocking: • 3% BSA in PBS/0.02% Tween, 1 hour at 37° C. in damp chamber • Addition : 200 μL per well, incubation: 1 hour at 37° C. in damp chamber
(§8) Recombinant human BMP-2, Catalog No.: 355-BM, Company: R&D Systems; or
(§9) Recombinant human RGM A, R&D Systems; Prod. #2495-RM,
(§10) recombinant human BMP-4, Catalog No.: 314-BM, Company: R&D Systems;
(§11) Concentration in each case: 10 μg/mL
(§12) Dilution steps: in each case 1:2 with PBS/0.02% Tween 20
(§13) 6. Washing step: • Wash 3× with PBS/0.02% Tween 20
(§14) Anti-human BMP-4 biotin antibody; Catalog No.: BAM7572, 1:200 in 1% BSA-PBS-T
(§15) 8. Washing step: • Wash 3× with PBS/0.02% Tween 20
10. Washing step: • Wash 3× with PBS/0.02% Tween 20
ImmunoPure TMB substrate kit; (Pierce, #34021) • Development period: approximately 1-30 minutes • 1:1 mixture of […]; addition: 50 μL per well
12. Stop: • 2.5 M H2SO4; addition: 50 μL per well
The test was conducted according to test method 4, variant B above, with immobilization of the fusion proteins (1 mg/mL). The binding of BMP-4 was detected using anti-BMP-4 biotin antibodies.
(§16) The test was conducted according to test method 4, variant B above, with immobilization of the fusion proteins (1 mg/mL). The binding of BMP-4 and -2 was detected using anti-BMP-4 and anti-BMP-2 biotin antibodies, respectively.

In another experiment the target is T2, BMP-2 (Homo sapiens, UniProt P12643).
T2 construct: purchased R&D Systems 355-BM; host or cells: CHO cells (said of #355-BM in the BRE-Luc section)
T2 sequence (P12643 283-396): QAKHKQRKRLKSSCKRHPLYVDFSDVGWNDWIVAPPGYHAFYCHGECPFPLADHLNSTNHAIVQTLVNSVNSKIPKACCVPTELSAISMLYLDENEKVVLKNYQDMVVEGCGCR
As to the kind of experiment: In vitro interaction test, variant B: immobilized RGMA-Fc fusion proteins, detection of BMP-2 binding. The settings on record: Working Example 2, FIG. 4, anti-BMP-2 biotin antibodies. How it is done: as §1, §2, §3, §4, §5, §6, §7, §8, §9, §10, §11, §12, §13, §14, §15
10. Washing step: • Wash 3× with PBS/0.02% Tween 20 […]
as §16

Experiment [1] deals with B3. As to the kind of experiment: ELISA, 218-284-Fc immobilised, BMP-4 titrated, detection with anti-BMP-4 biotin antibody. Here is the method:
(§17) The test was conducted according to test method 4, variant B above, with immobilization of the fusion proteins (1 mg/mL).

Experiment [2] concerns the target B5. The experiment is described as follows: ELISA, 47-168-Fc immobilised, BMP-4 titrated, detection with anti-BMP-4 biotin antibody. How it is done: as §17
On the technique in general: ELISA stands for enzyme-linked immunosorbent assay.

The target in experiment [3] is B5. As to the kind of experiment: ELISA, 47-168-Fc immobilised, BMP-2 titrated, detection with anti-BMP-2 biotin antibody. Here is the method:
as §17

In experiment [4] the target is B3. As to the kind of experiment: ELISA, BMP-4 coated at 2.5 µg/mL, fragment #786-Fc from 0.5 µg/mL in 1:2 dilutions (triple values), detection anti-human Fc biotin 1:200 and Strep POD 1:5000. From the text: The binding of the fusion proteins was detected using anti-human-antibodies.
Experiment [5] deals with B3. As to the kind of experiment: ELISA, 266-335-Fc immobilised, BMP-4 titrated, detection with anti-BMP-4 biotin antibody. How it is done:
as §17

B1: RGMA-Fc: RGM A Fc fusion protein used as comparison for the fragments (protein)
chain: PCKILKCNSEFWSATSGSHAPASDDTPEFCAALRSYALCTRRTARTCRGDLAYHSAVHGIEDLMSQHNCSKDGPTSQPRLRTLPPAGDSQERSDSPEICHYEKSFHKHSATPNYTHCGLFGDPHLRTFTDRFQTCKVQGAWPLIDNNYLNVQATNTPVLPGSAATATSKLTIIFKNFQECVDQKVYQAEMDELPAAFVDGSKNGGDKHGANSLKITEKVSGQHVEIQAKYIGTTIVVRQVGRYLTFAVRMPEEVVNAVEDWDSQGLYLCLRGCPLNQQIDFQAFHTNAEGTGARRLAAASPAPTAPETFPYETAVAKCKEKLPVEDLYYQACVFDLLTTGDVNFTLAAYYALEDVKMLHSNKDKLHLYERTRDLPG
modifications: left off: a dimerising Fc or GST
notes: RGM A Fc fusion protein used as comparison for the fragments
B1: the “binding of BMP-4” value in the experiment with BMP-4 (Working Example 1, FIG. 3, anti-BMP-4 biotin antibodies) was “Significant binding”; with BMP-4 (Working Example 2, FIG. 4, anti-BMP-4 biotin antibodies) it was “Significant binding”. In addition, the “binding of BMP-2” value with BMP-2 is “Significant binding”.

B2: Fragment 2 (Fc fusion)
RGM A fragment fused to Fc: IIFKNFQECVDQKVYQAEMDELPAAFVDGSKNGGDKHGANSLKITEKVSGQHVEIQAKYIGTTIVVR
notes: also called 218-284-Fc
For B2, the binding result in the experiment with Recombinant human BMP-4 [1] was “no binding”. For the molecule B3, the binding result in the experiment with 47-168-Fc (#786) [2] is reported as “binds”.

B4: Recombinant human BMP-2 (ligand, UniProt P12643 283-396, looked up)
chain: QAKHKQRKRLKSSCKRHPLYVDFSDVGWNDWIVAPPGYHAFYCHGECPFPLADHLNSTNHAIVQTLVNSVNSKIPKACCVPTELSAISMLYLDENEKVVLKNYQDMVVEGCGCR
notes: Bought protein; also called rhBMP-2; recombinant h BMP-2
As for B4, the binding result with 47-168-Fc (#786) [3] is given as “binds”. For orientation: EC50 (read off the curve) means the midpoint of the concentration-response curve. Take B5: in the experiment with Recombinant human BMP-4 [4], the “EC50 (read off the curve)” value was roughly 5 ng/mL.

B6: #789: 266-335 Fc 257 Stop no att (Fc fusion, human, UniProt Q96B86 266-335, looked up)
RGM A fragment fused to Fc: SGQHVEIQAKYIGTTIVVRQVGRYLTFAVRMPEEVVNAVEDWDSQGLYLCLRGCPLNQQIDFQAFHTNAE
notes: fragment; also called Fragment 3
As for B6, in the experiment with Recombinant human BMP-4 [5], the binding result is listed as “no binding”.
